Columns and labels:
human FcRn = human FcRn (human, UniProt P55899 24-297; P61769 21-119, limits assumed); assay: Biacore, pH 6.0; human FcRn at pH 6.0, Biacore; parental IgG, not IgG-scFv
LRP6 PD1/2 = target: T1, LRP6 PD1/2 (human, UniProt O75581 19-629); assay: Biacore T-100 SPR, antibody captured by anti-human IgG Fc on a CM4 chip, PD1/2 injected; N = 4
T1 construct: range 19-629; Recombinant soluble fragment; also called Propeller Domains 1-2 of LRP6; recombinant LRP6 PD1/2
T1 sequence (looked up): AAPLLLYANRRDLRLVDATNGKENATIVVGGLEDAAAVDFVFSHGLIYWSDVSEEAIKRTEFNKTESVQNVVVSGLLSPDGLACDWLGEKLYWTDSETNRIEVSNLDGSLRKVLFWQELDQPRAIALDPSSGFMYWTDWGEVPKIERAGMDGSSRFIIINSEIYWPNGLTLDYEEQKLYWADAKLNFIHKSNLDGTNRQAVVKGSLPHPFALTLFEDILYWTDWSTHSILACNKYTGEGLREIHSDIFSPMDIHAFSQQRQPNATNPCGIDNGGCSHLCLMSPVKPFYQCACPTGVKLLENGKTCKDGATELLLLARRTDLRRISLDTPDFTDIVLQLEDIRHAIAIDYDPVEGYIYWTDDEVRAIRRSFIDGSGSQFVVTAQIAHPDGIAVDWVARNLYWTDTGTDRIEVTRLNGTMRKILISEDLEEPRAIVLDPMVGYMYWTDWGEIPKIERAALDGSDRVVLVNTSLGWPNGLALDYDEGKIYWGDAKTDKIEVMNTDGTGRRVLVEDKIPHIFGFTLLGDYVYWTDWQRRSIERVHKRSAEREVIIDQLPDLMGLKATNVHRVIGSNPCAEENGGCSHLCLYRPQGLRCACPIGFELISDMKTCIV
Description: The carboxymethyl dextran surface was activated with a 7 min injection of a 1:1 ratio of 0.4 M EDC (1-Ethyl-3-[3-dimethylaminopropyl]carbodiimide hydrochloride) and 0.1 M NHS(N-hydroxysuccinimide). […] PD1/2 and PD3/4 were prepared as two fold concentration series starting at 50 nM, and injected at 30 μl/min for 1 min. […] The surfaces were then regenerated two times with 10 mM glycine (pH 2.2). […] PD3/4 at a saturating concentration of 100 nM was then flowed over the surface at a flow rate of 30 μl/min for 30 min. A saturating concentration of 100 nM PD1/2 was injected immediately after the PD3/4. The dissociation constant (KD), association (kₒₙ), and dissociation (koff) rates were calculated from the baseline subtracted corrected binding curves using the BIAevaluation software (GE Healthcare).

cynoFcRn = target: T2, cynoFcRn (cynomolgus monkey, UniProt Q8SPV9); assay: Biacore, cynoFcRn at pH 6.0
T2 construct: also called cynomolgus FcRn

Kd (human FcRn): 23 nM | Kd (LRP6 PD1/2): 1.08 nM | koff (LRP6 PD1/2): 9.05e-05 s⁻¹ | kon (LRP6 PD1/2): 87200 M⁻¹ s⁻¹ | Kd (cynoFcRn): 280 nM
B1: MOR08168 hIgG1LALA (antibody)
heavy: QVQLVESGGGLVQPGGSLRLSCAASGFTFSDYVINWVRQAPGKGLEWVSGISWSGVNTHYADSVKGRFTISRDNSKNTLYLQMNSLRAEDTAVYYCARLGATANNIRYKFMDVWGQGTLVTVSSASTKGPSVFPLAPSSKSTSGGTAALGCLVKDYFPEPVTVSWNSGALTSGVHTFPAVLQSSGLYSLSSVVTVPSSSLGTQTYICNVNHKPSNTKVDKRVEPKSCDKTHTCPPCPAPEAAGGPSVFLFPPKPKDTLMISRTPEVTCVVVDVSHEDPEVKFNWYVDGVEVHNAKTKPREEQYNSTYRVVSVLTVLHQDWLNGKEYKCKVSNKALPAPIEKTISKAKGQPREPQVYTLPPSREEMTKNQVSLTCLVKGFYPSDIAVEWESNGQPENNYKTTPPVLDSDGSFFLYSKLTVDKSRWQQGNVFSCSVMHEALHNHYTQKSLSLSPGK
light: DIELTQPPSVSVAPGQTARISCSGDSLRNKVYWYQQKPGQAPVLVIYKNNRPSGIPERFSGSNSGNTATLTISGTQAEDEADYYCQSYDGQKSLVFGGGTKLTVLGQPKAAPSVTLFPPSSEELQANKATLVCLISDFYPGAVTVAWKADSSPVKAGVETTTPSKQSNNKYAASSYLSLTPEQWKSHRSYSCQVTHEGSTVEKTVAPTECS
notes: Human IgG1 LALA / lambda; also called Propeller 1 IgG (MOR08168); MOR08168 (propeller 1 antibody)
